Measured values published in patent publication US20160160255A1, “Methods and Materials for Producing 6-Carbon Monomers” (INVISTA North America S.á.r.l., priority 2014, published 2016).

Experiment: β-ketothiolase activity, 4-hydroxybutyryl-CoA and acetyl-CoA to 3-oxo-6-hydroxyhexanoyl-CoA
Type: biochemical
Conditions: 5 μM enzyme and ChnC lactonase, 10 mM γ-butyrolactone, 5 mM acetyl-CoA, pH 6.8, 30° C., 3 hour
Description: A nucleotide sequence encoding a N-terminal His-tag was added to the gene from Clostridium aminobutyricum encoding the β-ketothiolase activity of SEQ ID NO: 14 (see FIG. 6) such that a N-terminal HIS tagged enzyme could be produced. The resulting modified gene was cloned into a pET15b expression vector under control of the T7 promoter and the expression vector was transformed into a BL21[DE3] E. coli host. The resulting recombinant E. coli strain was cultivated at 37° C. in a 1 L shake flask culture containing 350 mL LB media and ampicillin antibiotic selection pressure, with shaking at 230 rpm. Each culture was induced overnight at 25° C. using 1 mM IPTG.
The pellet from each induced shake flask culture was harvested via centrifugation. Each pellet was resuspended and lysed via sonication. The cell debris was separated from the supernatant via centrifugation. The enzyme was purified from the supernatant using Ni-affinity chromatography, buffer exchanged and concentrated into 50 mM potassium phosphate buffer (pH=6.8) via ultrafiltration.
Enzyme activity assays converting 4-hydroxybutyryl-CoA and acetyl-CoA to 3-oxo-6-hydroxyhexanoyl-CoA were performed in triplicate in a buffer composed of a final concentration of 50 mM potassium phosphate buffer (pH=6.8), 75 μM ZnCl2, 10 mM γ-butyrolactone and 5 mM acetyl-CoA. […] The formation of 3-oxo-6-hydroxyhexanoyl-CoA was determined via LC-MS.

B1: SEQ ID NO 14: Clostridium aminobutyricum CoA-transferase, GenBank Accession No. CAB60036.2, with β-ketothiolase activity, N-terminal His-tagged (protein, listed as Clostridium aminobutyricum)
chain: MDWKKIYEDRTCTADEAVKSIKSGDRVLFAHCVAEPPVLVEAMVANAAAYKNVTVSHMVTLGKGEYSKPEYKENFTFEGWFTSPSTRGSIAEGHGQFVPVFFHEVPSLIRKDIFHVDVFMVMVSPPDHNGFCCVGVSSDYTMQAIKSAKIVLAEVNDQVPVVYGDTFVHVSEIDKFVETSHPLPEIGLPKIGEVEAAIGKHCASLIEDGSTLQLGIGAIPDAVLSQLKDKKHLGIHSEMISDGVVDLYEAGVIDCSQKSIDKGKMAITFLMGTKRLYDFAANNPKVELKPVDYINHPSVVAQCSKMVCINACLQVDFMGQIVSDSIGTKQFSGVGGQVDFVRGASMSIDGKGKAIIAMPSVAKKKDGSMISKIVPFIDHGAAVTTSRNDADYVVTEYGIAEMKGKSLQDRARALINIAHPDFKDELKAEFEKRFNAAF
modifications: N-terminal His tag
For B1, the “acceptance of 4-hydroxybutyryl-CoA and acetyl-CoA as substrates, formation of 3-oxo-6-hydroxyhexanoyl-CoA (LC-MS)” value was “accepted 4-hydroxybutyryl-CoA and acetyl-CoA as substrates”.
